These results are taken from publication PMC10773984.

Bounds are passed on as bounds.

Assay [1] deals with p53-like peptide W23A, displayed on E. coli. The experiment in a line: flow cytometry on cells.
The target in assay [2] is p53-like peptide F19A, displayed on E. coli. The experiment in a line: flow cytometry on cells. (In general: A flow cytometer gives signals particle by particle.)

As for “Mdm2-GST (from UniProt Q00987 1-491) (natural protein)”, the relative Kd (against the wild type p53-like peptide) in assay [1] and in assay [2] was over 10000 throughout.
